We go through two molecules from US20210388105A1 (ELPISCIENCE SUZHOU BIOPHARMA, published 2021).

The target in assay [1] is T1, human CD39 (protein; form not stated) (human, UniProt P49961 38-478, limits assumed).
T1 construct: also called ENTPD1; ENTPDase 1
T1 sequence: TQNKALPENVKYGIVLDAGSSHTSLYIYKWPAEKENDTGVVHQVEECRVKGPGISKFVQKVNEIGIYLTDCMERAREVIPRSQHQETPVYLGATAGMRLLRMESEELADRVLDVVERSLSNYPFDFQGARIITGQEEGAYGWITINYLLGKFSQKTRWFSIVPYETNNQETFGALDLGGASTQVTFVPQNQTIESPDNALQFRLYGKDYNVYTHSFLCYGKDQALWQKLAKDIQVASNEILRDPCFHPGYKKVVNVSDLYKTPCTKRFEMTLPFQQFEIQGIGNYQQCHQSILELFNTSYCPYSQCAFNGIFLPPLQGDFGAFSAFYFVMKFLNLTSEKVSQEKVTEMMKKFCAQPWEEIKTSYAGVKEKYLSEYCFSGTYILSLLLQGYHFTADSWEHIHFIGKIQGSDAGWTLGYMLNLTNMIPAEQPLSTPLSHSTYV
In words: ELISA on coated ENTPD1 (CD39) protein, anti-hIgG-HRP, OD450. The method, then: Binding specificity of the purified humanized antibody hu23.H5L5 against ENTPDase family members was detected by ELISA assay. Briefly, ENTPD1 (i.e. CD39) and ENTPD 2/3/5/6 proteins were coated on 96-well ELISA plates at 4° C. overnight, next day the ELISA plates were washed and blocked using blocking buffer (1% BSA in PBS with 0.05% Tween20) 200 μL/well for 2 hours. Then hu23.H5L5 gradients were duplicated into the wells and stained with anti-hIgG-HRP. After plate washing, the plates were developed with TMB substrate and stopped by 2N HCl. The OD450 were recorded using plate reader and platted by Graphpad Prism.
In general terms: ELISA stands for enzyme-linked immunosorbent assay.

In assay [2] the target is T1, human CD39 (protein; form not stated). In words: Octet (BLI).

B1: hu23.H5L5 (antibody, V domains shown)
VH: QVQLVQSGAEVKKPGASVKVSCKASGYNLKDTFLHWVRQAPGQGLEWMGRIDPANGNIKYDPKFQGRVTITADTSANTAYMELISLRSEDTAVYYCANSPYYYGSGYRIFDVWGQGTTVTVSS
VL: QIVLTQSPATLSLSPGERATLSCSAFSSVNYMHWYQQKPGQAPRLLIYTTSNLASGIPTRFSGSGSGTSYTLTISSLEPEDFAVYYCQQRSTYPFTFGQGTKLEIK
notes: humanized c23
With B1, in assay [1], the EC50 (read off the curve) (usually the concentration that produces a half-maximal response) was roughly 4 nM.

B2: mAb14 (antibody, V domains shown)
VH: EVKLEESGGGLVQPGGSMKLSCVASGFTFSKYWMNWVRQSPEKGLEWVAEIRLKSNKYGTHYAESVKGRFTISRDDSKNNVYLQMNNLRPEDTGIYYCTTQLDLYWFFDVWGAGTTVTVSS
VL: DIVMTQSPAILSVTPGDRVSLSCRASQSISDYLHWYQQKSHESPRLLIKYASQSISGIPSRFSGSGSGSNFTLSINSVEPEDVGVYFCQNGHSLPLTFGAGTKLELR
notes: mouse hybridoma antibody
With B2, the Kd (commonly the free concentration of one partner at which half of the binding sites on the other are occupied at equilibrium, for simple one-to-one binding) in assay [2] was found to be 0.24 nM.
